Reference: patent publication US8722052B2, “Vaccinia virus protein A46 peptide and use thereof” (priority 2008, dated 2014)
Ends that are not written are not given here.

Experiments:
[1] = target: T1, TLR3 (Homo sapiens, UniProt O15455); test: poly(I:C)-induced NFκB / ISRE luciferase reporter assay in HEK293_TLR3 cells; format: cell-based; details: peptide 1, 5 or 25 μM, 25 μg/ml Poly(I:C), 6 h
T1 construct: expressed in transfected cells
Method: FIGS. 11A and B are bar charts showing the effect of A464 and scrambled A464 (ConA464) on poly(I:C)-induced TLR3 signalling in HEK293 cells. HEK293_TLR3 cells were seeded in 96 well plates (1.5×10^5 cells/ml) 24 hours before transfection with the plasmid DNA. Cells were transfected with 60 ng of either ISRE-Luciferase (A) or NFκB-Luciferase (B) and 20 ng of TK-Renilla reporter gene plasmids. The total volume of plasmid DNA transfected into the cells was made up to 230 ng by adding pcDNA.
Scrambled A464 (ConA464) (SEQ ID NO. 32) and A464 (SEQ ID NO. 20) peptides were added to the cells at a concentration of 2, 5 or 10 μM the next day and cells were stimulated with 25 μg/ml poly(I:C) 1 hour after treatment with the peptide. Cells were harvested and reporter gene assays performed 6 hr after stimulation with the agonist. No peptides were added to the control wells (black bars). Data is representative of at least three experiments each performed in triplicate. Data are expressed as mean fold induction±s.d. relative to control levels;
(§1) FIGS. 20A and B are bar charts showing the effect of shortened A464 peptides with deletions of N- and C-terminal amino acids on TLR4- and TLR3-induced NFκB activation in HEK293 cells. HEK293_TLR4 (A) and HEK293_TLR3 (B) cells were seeded in 96 well plates (1.5×10^5 cells/ml) 24 hours before transfection with the plasmid DNA. Cells were transfected with 60 ng NFκB-Luciferase and 20 ng of TK-Renilla reporter genes, as in FIG. 11. A464N-2 (SEQ ID NO. 41) and A464C-3 (SEQ ID NO. 42) peptides were added to the cells at a concentration of 1, 5 or 25 μM the next day and cells were stimulated with either 10 ng/ml LPS (A) or 25 μg/ml Poly(I:C) (B) 1 hour after treatment with peptides. Cells were harvested and assayed for NFκB activation by reporter gene assay 6 hours after stimulation with the agonists. No peptides were added to the control wells (black bars). Data is representative of three experiments each performed in triplicate and is expressed as mean fold induction±s.d. relative to control levels;
HEK293 cells were transfected using GeneJuice® a proprietary non-toxic transfection reagent. 200 μl/well cells at a density of 1×10^5 cells/ml were seeded the day before transfection. 0.8 μl of GeneJuice was mixed with 9.2 μl of serum-free DMEM (SFM) per transfection and incubated for 5 min at room temperature before adding the appropriate amount of the plasmid DNA. The GeneJuice/SFM/DNA mixture was then incubated at room temperature for 15 min before adding to the cells. 10 μl per well of the GeneJuice/SMF/DNA mixture was added to the cells in triplicate and the cells were allowed to recover for 18-20 hours before stimulation. […]

[2] = system: TLR4; test: LPS-induced NFκB reporter assay in HEK293_TLR4 cells; format: cell-based, human; details: peptide 1, 5 or 25 μM 1 h before 10 ng/ml LPS, 6 h
TLR4, sequence (O00206 24-839): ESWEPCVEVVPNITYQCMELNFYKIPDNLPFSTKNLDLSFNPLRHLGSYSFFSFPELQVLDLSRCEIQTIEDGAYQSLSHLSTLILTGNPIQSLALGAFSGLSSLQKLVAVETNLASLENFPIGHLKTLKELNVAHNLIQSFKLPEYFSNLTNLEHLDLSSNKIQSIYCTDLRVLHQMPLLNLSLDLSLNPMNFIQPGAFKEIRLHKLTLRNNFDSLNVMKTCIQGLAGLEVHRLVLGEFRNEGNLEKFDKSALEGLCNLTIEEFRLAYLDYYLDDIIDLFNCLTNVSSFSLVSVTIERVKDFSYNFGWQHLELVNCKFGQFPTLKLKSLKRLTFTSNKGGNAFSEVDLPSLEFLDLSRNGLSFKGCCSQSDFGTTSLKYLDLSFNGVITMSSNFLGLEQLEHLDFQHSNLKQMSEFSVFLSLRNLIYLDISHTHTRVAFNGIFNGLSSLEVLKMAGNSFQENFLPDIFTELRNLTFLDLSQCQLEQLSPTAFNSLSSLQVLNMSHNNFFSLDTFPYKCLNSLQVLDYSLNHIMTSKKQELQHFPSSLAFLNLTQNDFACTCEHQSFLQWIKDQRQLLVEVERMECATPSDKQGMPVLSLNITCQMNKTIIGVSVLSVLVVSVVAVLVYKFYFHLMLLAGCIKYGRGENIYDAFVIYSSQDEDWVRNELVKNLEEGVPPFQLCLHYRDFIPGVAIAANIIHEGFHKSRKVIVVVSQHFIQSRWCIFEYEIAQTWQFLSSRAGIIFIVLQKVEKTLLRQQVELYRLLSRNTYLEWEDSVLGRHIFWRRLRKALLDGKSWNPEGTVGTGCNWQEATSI
TLR4, sequence (Q9Y6Y9 17-160 partner limits assumed): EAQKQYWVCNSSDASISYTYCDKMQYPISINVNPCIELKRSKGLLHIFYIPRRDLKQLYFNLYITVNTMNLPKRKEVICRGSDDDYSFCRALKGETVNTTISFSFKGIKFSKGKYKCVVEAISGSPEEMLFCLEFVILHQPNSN
Method: as §1
FIGS. 24A and B are bar charts showing the effect of A464 on ligand-independent TLR4 signalling in HEK293 cells. HEK293_TLR4 cells were seeded in 96 well plate (1.5×10^5 cells/ml) 24 hours before transfection with NFκB-luciferase and TK-Renilla reporter gene plasmids. NFκB activation was stimulated by transfecting either 50 or 100 ng of CD4/TLR4-encoding plasmid or by stimulating with 10 ng/ml LPS. The total amount of plasmid DNA transfected into the cells was made up to 230ng by adding pcDNA. A464 (SEQ ID NO. 20) was added to the cells at a concentration of 5 or 25 μM 2 hours (A) or 9 hours (B) after the transfection or LPS-stimulation. Cells were harvested and assayed for NFκB activation by reporter gene assay 24 hours post-transfection. No peptides were added to the control wells (black bars). Data is representative of two experiments, each performed in triplicate and is expressed as mean fold induction±s.d. relative to control levels;
HEK293 cells were transfected using GeneJuice® a proprietary non-toxic transfection reagent. […]

[3] = system: PBMCs; test: MTT cell viability assay, PBMC; format: cell-based, human; details: peptide 1, 5 and 25 μM
Method: FIGS. 13A and B are bar charts showing the effect of A467 and A464 on LPS-induced TNFα production and on cell viability in primary human cells. Peripheral blood mononuclear cells (PBMCs) were seeded in 96 well plates (1 ×10^6 cells/ml) 24 hours before treatment. A467 (SEQ ID NO. 23) and A464 (SEQ ID NO. 20) were added to the cells at 1, 5 and 25 μM 1 hour before stimulating with 10 ng/ml LPS. The peptides were added into the unstimulated control wells at 25 μM. Supernatants were collected 6 hours after stimulation and assayed for TNFα production by ELISA (A). The cells were assayed for viability by the MTT assay (B). No peptides were added to the control wells (black bars). Data is representative of at least three experiments each performed in triplicate and is expressed as mean±s.d;
Cell viability was measured by assessing mitochondrial function using an MTT (3-(4,5-Dimethylthiazol-2-yl)-2,5-diphenyltetrazolium bromide) assay. Cells were seeded into 96 well plates and treated with peptides and agonists as described above in relation to the Figs. Wells containing medium only served as a blank control. To terminate treatment of cells, medium was removed and the cells were washed once with PBS. […] MTT was then removed and 200 μl per well of dimethyl sulphoxide (DMSO) was added and cells incubated for 20 min at 37° C. in the dark, prior to absorbance being read at 595 nm on a spectrophotometer.

[4] = target: T2, TLR4 (Mus musculus, UniProt Q9QUK6); test: LPS-induced TNFα in immortalised murine macrophages, ELISA; format: cell-based; design: endogenous in cells; immortalised murine bone-marrow-derived macrophages; details: peptide 1, 3, 6.25 and 12.5 μM, 20 ng/ml LPS, 6 h
T2 sequence (Q9QUK6 26-835): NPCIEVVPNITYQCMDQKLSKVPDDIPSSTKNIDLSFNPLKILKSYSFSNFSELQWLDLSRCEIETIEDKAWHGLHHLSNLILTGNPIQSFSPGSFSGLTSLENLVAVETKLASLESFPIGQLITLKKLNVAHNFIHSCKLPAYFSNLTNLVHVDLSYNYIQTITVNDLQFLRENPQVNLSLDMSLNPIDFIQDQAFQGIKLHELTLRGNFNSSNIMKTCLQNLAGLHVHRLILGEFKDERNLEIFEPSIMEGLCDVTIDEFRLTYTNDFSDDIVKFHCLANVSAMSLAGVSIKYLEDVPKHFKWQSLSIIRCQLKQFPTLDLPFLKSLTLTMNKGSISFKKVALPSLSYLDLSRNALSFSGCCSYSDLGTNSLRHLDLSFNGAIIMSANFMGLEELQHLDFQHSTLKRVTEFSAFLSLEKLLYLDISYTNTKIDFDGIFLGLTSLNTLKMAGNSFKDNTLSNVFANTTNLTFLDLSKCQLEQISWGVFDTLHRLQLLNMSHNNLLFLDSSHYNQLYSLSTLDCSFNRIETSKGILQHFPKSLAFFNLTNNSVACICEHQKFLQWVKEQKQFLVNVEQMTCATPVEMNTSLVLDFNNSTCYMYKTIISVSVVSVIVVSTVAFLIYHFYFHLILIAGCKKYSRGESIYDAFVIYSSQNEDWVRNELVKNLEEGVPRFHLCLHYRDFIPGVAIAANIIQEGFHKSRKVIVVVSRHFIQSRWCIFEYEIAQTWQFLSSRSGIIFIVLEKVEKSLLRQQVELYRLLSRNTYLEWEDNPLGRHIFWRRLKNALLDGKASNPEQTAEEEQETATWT
T2 sequence (Q9JHF9 19-160 partner): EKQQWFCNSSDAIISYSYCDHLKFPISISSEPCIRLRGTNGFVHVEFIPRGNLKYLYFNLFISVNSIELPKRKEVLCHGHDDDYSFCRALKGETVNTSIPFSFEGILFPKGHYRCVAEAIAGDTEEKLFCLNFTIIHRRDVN

[5] = system: TLR4; test: LPS-induced TNFα in PMA-differentiated U937 cells, ELISA; format: cell-based, human; details: peptide 5 or 20 μM 1 h before 100 ng/ml LPS, 24 h
Method: FIGS. 3A and B are bar charts showing the effect of peptides derived from A46 on LPS-induced TNFα in human U937 cells. Cells were differentiated with 200 nM PMA and seeded in 96 well plates (2×10^5 cells/ml) 24 hours before treatment. A46 peptides were added to the cells at a concentration of 5 or 20 μM 1 hour before stimulating with 100 ng/ml LPS. Supernatants were collected 24 hours after stimulation and assayed for TNFα by ELISA. No peptides were added into the control wells (black bars). (A) peptides A461-A467 (SEQ ID NO. 17 to 23). (B) peptides A468-A4614 (SEQ ID NO. 24 to 30) (excluding A4612 SEQ ID NO. 28). Data is representative of at least two experiments each performed in triplicate and is expressed as mean±s.d;
Cytokine and chemokine production from cells or mouse serum was measured by ELISA using Duoset kits from R&D systems, according to the manufacturer's instructions.
LPS is a component of a cell wall of Gram-negative bacteria which is recognised by a homodimer of TLR4 and signals to NFκB via both a MyD88- and TRIF-dependent pathway (O'Neill and Bowie, 2007). In order to examine the effect of the peptides on TLR4-dependent gene induction in human cells, the human monocytic lymphoma cell line U937 was used. U937 cells were differentiated into macrophages by treatment with 200 nM PMA for 24 hours before any further manipulations. […]

## SFKLILAEY-9R (SFKLILAEYRRRRRRRRR) [Peptide A464N-2]
[1]
  inhibition of Poly(I:C)-induced NFκB activation (TLR3) by shortened peptides: no inhibition of TLR3 signalling to NFκB up to 25 μM
[2]
  inhibition of LPS-induced NFκB activation by shortened peptides: inhibited LPS-induced NFκB activation completely at 1 μM

## KYSFKLIL-9R (KYSFKLILRRRRRRRRR) [Peptide A464C-3]
[1]
  inhibition of Poly(I:C)-induced NFκB activation (TLR3) by shortened peptides: no inhibition of TLR3 signalling to NFκB up to 25 μM
[2]
  inhibition of LPS-induced NFκB activation by shortened peptides: inhibited LPS-induced NFκB activation completely at 1 μM

## RNTISGNIYSARRRRRRRRR [Peptide A467]
[3]
  toxicity (MTT): not toxic

## 9R-SFKLI (RRRRRRRRRSFKLI) [Peptide 9R-SFKLI]
[4]
  inhibition of TLR4-induced murine TNFα by shorter versions of sA464N9R: did not

## 9R-FKLIL (RRRRRRRRRFKLIL) [Peptide 9R-FKLIL]
[4]
  inhibition of TLR4-induced murine TNFα by shorter versions of sA464N9R: retained the ability to inhibit TLR4

## 9R-FKLI (RRRRRRRRRFKLI) [Peptide 9R-FKLI]
[4]
  inhibition of TLR4-induced murine TNFα by shorter versions of sA464N9R: did not

## LILAEYIRHRNRRRRRRRRR [Peptide A465]
[5]
  inhibition of LPS (TLR4)-induced TNFα production: did not inhibit TLR4 responses
